Read-outs that look alike come from different tables or passages of the source. Positions of bridges follow the written chain, without caps; N, C: chain ends. Non-standard residues stand in square brackets, D forms with d. Chains are numbered I, II in the order given. *: point of attachment. Dolaproine = CO[C@@H]([C@@H]1CCCN1)[C@@H](C)C(=O)O; Dil = CC[C@H](C)[C@H](NC)[C@@H](CC(=O)O)OC; X1 = C[C@@H](N*)[C@@H](O)c1ccccc1; NMeV = CN[C@H](C(=O)O)C(C)C; Mpa = O=C(O)CCS
Columns and labels:
[1] = Construct Stability HPLC in Mouse Serum; type: in vitro ADME; settings: 37° C., 48 h
Procedure: FIG. 8A, FIG. 8B, and FIG. 8C show Purity check and Chemical stability of pHLIP-MMAE conjugates. (FIG. 8A) and (FIG. 8B): HPLC traces of pHLIP(WT)-MMAE and pHLIP(D25E)-MMAE, respectively: Purified conjugates (upper panels), 10 μM of conjugate in cell media (middle panels) and after incubation in cell media for 2 h at pH 5.0 and 37° C. (lower panels). The small peak observed around 27 min in (FIG. 8B) upper panel corresponds to some residual free pHLIP (<15%), which is known to not be cytotoxic (FIG. 7). (FIG. 8C) HPLC traces of Alexa750-pHLIP(WT)-MMAE: Purified conjugate (upper panel), 10 μM Alexa 750-pHLIP(WT)-MMAE before (upper panel) and after 48 h incubation in mouse serum at 37° C. (lower panel). Purity checks and chemical stability runs were performed on different column and with different flow rate, explaining the difference in retention times and peak broadness (see Experimental Section). […]
Peptide solutions were incubated at either pH 7.4 or pH 5.0 (37° C. and 5% CO2) and 100 μL aliquots were monitored via RP-HPLC at various time points (Agilent Eclipse XDB-C18 […] 9.4×250 mm; flow rate 2 mL/min; phase A: water 0.01% TFA; phase B: acetonitrile 0.01% TFA; gradient 45 min from 95/5 A/B to 0/100 A/B). […] The stability of Alexa750-pHLIP(WT)-MMAE was determined in mouse serum by solubilizing the construct to incubating it at 37° C. and monitoring via RP-HPLC at specific time points.

[2] = for Trp fluorescence emission maxima: POPC liposomes; for insertion in lipid bilayers: acidic conditions
Procedure: State I corresponds to the peptides in an aqueous environment is shown in black, state II: peptides in the presence of lipid membranes at pH 7.4, shown in blue and state III: peptides in the presence of lipids at pH 5.0 is shown in red. [peptide]=7 μM and peptide-lipid ratio=1:300 with POPC liposomes.
Preparation of POPC Liposomes. Ten milligrams of POPC in chloroform were dried and then held under vacuum overnight. The dried lipid film was rehydrated with 1 ml of 5 mM sodium phosphate, pH 8.0, and mixed by vigorous vortex. The resulting multilamellar vesicle solution was freeze-thawed in liquid nitrogen for seven cycles and were extruded through a polycarbonate membrane with […] diameter pores using a mini extruder (Avanti Polar Lipids) to produce large unilamellar vesicles. Liposomes were used immediately following their preparation. Lipid concentration was checked using the Marshall's assay and the size distribution was verified by dynamic light scattering analysis performed at a scattering angle of 90° using an ALV/GSC-3 goniometer system equipped with ALV/ALV-7004 correlator (ALV-GmbH, Langen, Germany).
Sample preparation for Circular Dichroism and Tryptophan Fluorescence Measurements. Prior to CD or fluorescence measurements, lyophilized aliquots of pHLIP constructs were resuspended to 20 μM with 5 mM sodium phosphate, pH 8.0, and incubated for 1 hour at room temperature. This stock solution was diluted to a final concentration of 7 μM and, when appropriate, incubated with POPC liposomes at a 1:300 peptide-to-lipid molar ratio for 30 minutes at room temperature. Subsequently, samples were adjusted to the desired experimental pH values with the addition of aliquots of an HCl solution to elicit pH-dependent insertion. Samples were allowed to equilibrate at the desired pH for 30 minutes at room temperature before spectroscopic measurements.
Tryptophan Fluorescence Spectroscopy. All measurements were carried out using a Cary Eclipse Fluorescence Spectrophotometer (Varian), and performed at 25° C. with pHLIP construct concentrations equal to 7 μM. Samples were excited at 295 nm and the emission spectra were taken from 300 to 500 nm, with the slit widths for emission and excitation both set 5 nm.
Circular Dichroism Spectroscopy. Far-UV CD spectra of pHLIP constructs were recorded on Jasco J-815 CD spectrometer equipped with a Peltier thermal-controlled cuvette holder (Jasco, Inc.). All measurements were performed in 0.1 mm quartz cuvette at 25° C. with pHLIP constructs concentrations equal to 7 μM. CD intensities are expressed in mean residue molar ellipticity [θ] calculated from the following equation: […]

I: H-AAEQNPIYWARYADWLFTTPLLLLDLALLVDADEGTCG-OH / II: [Mpa][NMeV]V[Dil][Dolaproine]-X1 (disulfide I:37-II:1) [pHLIP(WT)-MMAE]
stability in serum [1]: stable in serum | Trp fluorescence emission maxima ([2]; pH 5.0): 334 nm | Trp fluorescence emission maxima ([2]; pH 7.4): 348 nm | insertion in lipid bilayers [2]: can insert in lipid bilayers under acidic conditions to form stable transmembrane α-helices

I: H-AAEQNPIYWARYADWLFTTPLLLLELALLVDADEGTCG-NH2 / II: [Mpa][NMeV]V[Dil][Dolaproine]-X1 (disulfide I:37-II:1) [pHLIP(D25E)-MMAE]
Trp fluorescence emission maxima ([2]; pH 5.0): 329 nm | Trp fluorescence emission maxima ([2]; pH 7.4): 347 nm | insertion in lipid bilayers [2]: can insert in lipid bilayers under acidic conditions to form stable transmembrane α-helices
